Test results published in patent publication US20180251524A1 (published 2018).
Blank lines part the entries; values can stand above or below the binder they belong to.

Experiments:
Clone 3.2.20 = assay: yeast display flow cytometry titration; apparent
Clone 3.2.1 = assay: yeast display flow cytometry titration; estimated
Clone 3.2.22 = assay: yeast display flow cytometry titration; estimated
Clone 3.2.16 = assay: yeast display flow cytometry titration; estimated
Clone 3.2.17 = assay: yeast display flow cytometry titration; estimated
1DD-Fn-v4 Monomers = assay: flow cytometry titration on cells; apparent

Kd (Clone 3.2.20): 140 nM | Kd (Clone 3.2.1): 190 nM | Kd (Clone 3.2.22): 190 nM | Kd (Clone 3.2.16): 150 nM | Kd (Clone 3.2.17): 130 nM
B1: EpCAM (receptor)
chain: QEECVCENYKLAVNCFVNNNRQCQCTSVGAQNTVICSKLAAKCLVMKAEMNGSKLGRRAKPEGALQNNDGLYDPDCDESGLFKAKQCNGTSMCWCVNTAGVRRTDKDTEITCSERVRTYWIIIELKHKAREKPYDSKSLRTALQKEITTRYQLDPKFITSILYENNVITIDLVQNSSQKTQNDVDIADVAYYFEKDVKGESLFHSKKMDLTVNGEQLDLDPGQTLIYYVDEKAPEFSMQGLK
modifications: biotinylated (site not stated)

Kd (1DD-Fn-v4 Monomers): 34.8 nM
B2: MCF-7 Cells (receptor)
chain: QEECVCENYKLAVNCFVNNNRQCQCTSVGAQNTVICSKLAAKCLVMKAEMNGSKLGRRAKPEGALQNNDGLYDPDCDESGLFKAKQCNGTSMCWCVNTAGVRRTDKDTEITCSERVRTYWIIIELKHKAREKPYDSKSLRTALQKEITTRYQLDPKFITSILYENNVITIDLVQNSSQKTQNDVDIADVAYYFEKDVKGESLFHSKKMDLTVNGEQLDLDPGQTLIYYVDEKAPEFSMQGLKAGVIAVIVVVVIAVVAGIVVLVISRKKRMAKYEKAEIKEMGEMHRELNA
